Source: US20200354474A1 (BROWN UNIVERSITY, published 2020)

Tests used:
[1] = target: T1, human Chi3l1 (chitinase 3-like-1) (human, UniProt P36222 22-383); test: Western blot and ELISA, denaturing and non-denaturing conditions
T1 construct: also called YKL-40; recombinant (r) human Chi3l1

[2] = target: T2, mouse Chi3l1 (chitinase 3-like-1) (mouse, UniProt Q61362 30-389, limits assumed); test: as above
T2 construct: Recombinant mouse Chi3l1; also called murine Chi3l1; Chil1 (printed 'Chill')
T2 sequence (Q61362 30-389 limits assumed): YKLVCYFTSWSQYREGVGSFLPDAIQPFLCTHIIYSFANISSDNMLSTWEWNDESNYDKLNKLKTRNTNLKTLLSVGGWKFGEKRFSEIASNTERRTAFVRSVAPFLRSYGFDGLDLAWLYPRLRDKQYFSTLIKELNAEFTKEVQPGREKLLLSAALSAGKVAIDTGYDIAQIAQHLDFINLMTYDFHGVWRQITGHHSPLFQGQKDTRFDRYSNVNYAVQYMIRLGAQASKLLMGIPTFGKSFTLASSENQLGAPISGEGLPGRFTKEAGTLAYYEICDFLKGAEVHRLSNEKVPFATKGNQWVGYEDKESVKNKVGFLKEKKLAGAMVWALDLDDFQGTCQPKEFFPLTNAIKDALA

T1 sequence (P36222 22-383 limits assumed): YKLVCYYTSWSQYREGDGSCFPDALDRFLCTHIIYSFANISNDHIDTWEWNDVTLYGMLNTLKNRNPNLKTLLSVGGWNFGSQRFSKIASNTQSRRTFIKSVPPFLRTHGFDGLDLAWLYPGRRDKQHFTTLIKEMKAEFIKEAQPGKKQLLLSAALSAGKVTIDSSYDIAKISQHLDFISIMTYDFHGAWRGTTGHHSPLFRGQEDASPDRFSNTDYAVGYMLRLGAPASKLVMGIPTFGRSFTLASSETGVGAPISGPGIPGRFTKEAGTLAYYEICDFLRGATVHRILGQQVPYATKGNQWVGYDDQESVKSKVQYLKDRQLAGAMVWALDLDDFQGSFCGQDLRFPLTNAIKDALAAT

binding result [1]: binds | binding result [2]: binds
B1: FRG monoclonal antibody (antibody, V domains shown)
VH: QIQLVQSGPELKKPGETVKISCKASGYTFTNYGMNWVKQAPGKGLKWMGWINTYTGEPTYADDFKGRFAFSLETSASTAYLQINNLRNEDMSTYFCARLGYGKFYVMDYWGQGTSVTVSS
VL: DVVMTQTPLSLPVSLGDQASISCRSSQSLVHSNGNTYLHWYLQKPGQSPKLLIYKVSNRFSGVPDRFSGSGSGTDFTLKISRVEAEDLGVYFCSQSTHVTWTFGGGTKLEIK
notes: also called FRG mAb; anti-Chi3l1-FRG
